Patent publication CN113975385A (dated 2022)

Target: T1, human CD20 on Raji cells (human, UniProt P11836 1-297)
T1 construct: whole, on cells; also called Raji (CD20+/CD3-细胞)
T1 sequence (looked up): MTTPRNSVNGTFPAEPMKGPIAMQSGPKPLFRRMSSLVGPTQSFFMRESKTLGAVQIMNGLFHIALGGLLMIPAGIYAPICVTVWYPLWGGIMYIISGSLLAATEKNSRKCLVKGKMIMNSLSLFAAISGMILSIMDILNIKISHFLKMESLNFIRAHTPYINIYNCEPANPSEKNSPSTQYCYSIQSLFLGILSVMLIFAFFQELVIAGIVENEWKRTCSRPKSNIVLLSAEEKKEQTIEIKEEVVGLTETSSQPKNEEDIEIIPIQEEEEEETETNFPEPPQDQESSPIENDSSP
Assay: FACS, simultaneous binding: Calcein-AM Raji and FarRed Jurkat cells mixed 1:1, percent double-positive cells

B1: W3278-U2T3.F18R-1.uIgG4.SP (bispecific antibody)
chain 1: QVQLQQPGAELVKPGASVKMSCKASGYTFTSYNMHWVKQTPGRGLEWIGAIYPGNGDTSYNQKFKGKATLTADKSSSTAYMQLSSLTSEDSAVYYCARSTYYGGDWYFNVWGAGTTVTVSAASTKGPSVFPLAPCSRSTSESTAALGCLVKDYFPEPVTVSWNSGALTSGVHTFPAVLQSSGLYSLSSVVTVPSSSLGTKTYTCNVDHKPSNTKVDKRVGGGGSGGGGSQVQLVQSGAEVKKPGSSVKVSCKASGFAFTDYYIHWVRQAPGQGLEWMGWISPGNVNTKYNENFKGRVTITADKSTSTAYMELSSLRSEDTAVYYCARDGYSLYYFDYWGQGTLVTVLEDLKNVFPPEVAVFEPSEAEISHTQKATLVCLATGFYPDHVELSWWVNGKEVHSGVCTDPQPLKEQPALQDSRYALSSRLRVSATFWQNPRNHFRCQVQFYGLSENDEWTQDRAKPVTQIVSAEAWGRYGPPCPPCPAPEFLGGPSVFLFPPKPKDTLMISRTPEVTCVVVDVSQEDPEVQFNWYVDGVEVHNAKTKPREEQFNSTYRVVSVLTVLHQDWLNGKEYKCKVSNKGLPSSIEKTISKAKGQPREPQVYTLPPCQEEMTKNQVSLWCLVKGFYPSDIAVEWESNGQPENNYKTTPPVLDSDGSFFLYSRLTVDKSRWQEGNVFSCSVMHEALHNHYTQKSLSLSLG
chain 2: QVQLQQPGAELVKPGASVKMSCKASGYTFTSYNMHWVKQTPGRGLEWIGAIYPGNGDTSYNQKFKGKATLTADKSSSTAYMQLSSLTSEDSAVYYCARSTYYGGDWYFNVWGAGTTVTVSAASTKGPSVFPLAPCSRSTSESTAALGCLVKDYFPEPVTVSWNSGALTSGVHTFPAVLQSSGLYSLSSVVTVPSSSLGTKTYTCNVDHKPSNTKVDKRVESKYGPPCPPCPAPEFLGGPSVFLFPPKPKDTLMISRTPEVTCVVVDVSQEDPEVQFNWYVDGVEVHNAKTKPREEQFNSTYRVVSVLTVLHQDWLNGKEYKCKVSNKGLPSSIEKTISKAKGQPREPQVCTLPPSQEEMTKNQVSLSCAVKGFYPSDIAVEWESNGQPENNYKTTPPVLDSDGSFFLVSRLTVDKSRWQEGNVFSCSVMHEALHNHYTQKSLSLSLG
chain 3: QIVLSQSPAILSASPGEKVTMTCRASSSVSYIHWFQQKPGSSPKPWIYATSNLASGVPVRFSGSGSGTSYSLTISRVEAEDAATYYCQQWTSNPPTFGGGTKLEIKRTVAAPSVFIFPPSDEQLKSGTASVVCLLNNFYPREAKVQWKVDNALQSGNSQESVTEQDSKDSTYSLSSTLTLSKADYEKHKVYACEVTHQGLSSPVTKSFNRGEC
light: DIVMTQSPDSLAVSLGERATINCKSSQSLLNSRTRKNYLAWYQQKPGQPPKLLIYWASTRQSGVPDRFSGSGSGTDFTLTISSLQAEDVAVYYCTQSHTLRTFGGGTKVEIKPDIQNPDPAVYQLRDSKSSDKSVCLFTDFDSQTQVSQSKDSDVYITDKCVLDMRSMDFKSNSAVAWSQKSDFACANAFQNSIIPEDTFFPSPESS
notes: WuXiBody format F18R-1, human IgG4 with S228P and knobs-into-holes; also called WBP3278 lead Ab; W3278 lead Ab
binding result: binds
